# Assay results as given in US20240156869A1 (published 2024).
# T1: HERV-E (CT-RCC8/9 by the listing's note) peptide on HLA-A*11 (human)
# T1 peptide: ATFLGSLTWK
# B1: HERV-E-TCR (TCR, V domains shown)
# Valpha: GIQVEQSPPDLILQEGANSTLRCNFSDSVNNLQWFHQNPWGQLINLFYIPSGTKQNGRLSATTVATERYSLLYISSSQTTDSGVYFCAVRGGADGLTFGKGTHLIIQP
# Vbeta: DTEVTQTPKHLVMGMTNKKSLKCEQHMGHRAMYWYKQKAKKPPELMFVYSYEKLSINESVPSRFSPECPNSSLLNLHLHALQPEDSALYLCASSPPNEKLFFGSGTQLSVL
# Molecular target: T1, HERV-E (CT-RCC8/9 by the listing's …)
# Assay: cytokine release
# Method: To test whether A*11 expression conferred target recognition to these transduced cells, a co-culture experiment was performed. […] After 18 hours, the supernatant was collected and an ELSIA was performed on the supernatant for interferon-gamma (IFNγ).
# To test whether A*02 expression conferred target recognition to these transduced cells, a co-culture experiment was performed. […] After 18 hours, the supernatant was collected, and an ELISA was performed on the supernatant for Interferon-gamma (IFNγ).
binder,measurement,value
B1,binding result,recognises
